As a reminder, the stoichiometry N is a count of units in the complex or per binding partner.

In this assay the target is NS1 protein expressed in yeast cells (UniProt P14340).

“NS1 protein expressed in yeast cells (from UniProt P14340 776-1127) (natural protein)”: the stoichiometry N came to 2.

These data come from paper PMC3597719.
